# Source: patent publication US20090263864A1 (CRUCELL HOLLAND B V, published 2009)
# T1: CD46 on human coloncarcinoma LS174T cells (human, UniProt P15529 35-392)
# T1 construct: whole, on cells
# T1 sequence (looked up): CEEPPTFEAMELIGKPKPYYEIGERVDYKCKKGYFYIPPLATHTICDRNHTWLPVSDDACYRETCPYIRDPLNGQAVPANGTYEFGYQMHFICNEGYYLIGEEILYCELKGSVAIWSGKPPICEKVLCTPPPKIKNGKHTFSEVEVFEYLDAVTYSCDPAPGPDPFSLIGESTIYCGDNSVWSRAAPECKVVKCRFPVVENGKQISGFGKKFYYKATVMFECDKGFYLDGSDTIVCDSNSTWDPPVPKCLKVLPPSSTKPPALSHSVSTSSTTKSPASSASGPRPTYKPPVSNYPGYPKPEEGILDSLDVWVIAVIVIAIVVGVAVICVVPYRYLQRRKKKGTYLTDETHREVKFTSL
# Target: T1, CD46 on human coloncarcinoma LS174T …
# Assay: FACS on LS174T cells preincubated with normal human serum; biotinylated antibody, streptavidin-PE; MFI
# Experimental: Binding (MFI, ordinate) was determined by FACS after incubation with streptavidin-conjugated phycoerythrin.
binder,measurement,value
"K53 IgG (antibody, V domains shown, also called clone K53; anti-CD46 clone K53) VH: QVQLVQSGAEVKKPGASVKVSCKASGYTFTSYGISWVRQAPGQGLEWMGWISAYNGNTNYAQKLQGRVTMTTDTSTSTAYMELRSLRSDDTAVYYCARGMMRGVFDYWGQGTLVTVST VL: not shown",EC50 (read off the curve),~3 µg/mL
